Experimental data from patent publication US20150111836A1, “CELLULAR APOBEC3 PROTEINS AND MODULATORS THEREOF FOR REGULATING DNA REPAIR PROCESSES AND TREATING PROLIFERATIVE DISEASES” (priority 2012, published 2015).

Columns and labels:
[1] = test system: SC or SU oligonucleotides (80 nt); test: Electrophoretic mobility shift assay (EMSA) of ssDNA binding; details: biotinylated SC oligonucleotides (80 nt), FIG. 3B
Protocol: SC (10 pmol) was 3′ labeled with dATP-biotin using 10 u terminal deoxynucleotidyl transferase (NEB) in NEBuffer 4 (NEB) supplemented with 0.25 mM CoCl2 and 10 μM dATP-biotin (Invitrogen). Labeled oligos (200 fmol) were incubated with A3G or RPA for 8 or 30 mM, respectively, at room temperature, in EMSA buffer: 50 mM Tris (pH 7.0), 50 mM NaCl, 0.1 mg/mL BSA and 10% glycerol, in 10 μL, reaction volume. Samples were resolved by 6% native PAGE, transferred to a Hybond N nylon membrane (GE Healthcare) using a semi-dry transfer apparatus (Biorad) and UV-crosslinked (302 nm) for 15 min. Following blocking with Casein blocking buffer (Sigma), the membrane was treated with horseradish peroxidase conjugated sterptavidine (Jackson) for 20 mM at RT, washed 6 times with TBS (pH 7.4) and visualized by enhanced chemiluminescence. […] Following incubation with A3G, samples were resolved by PAGE, stained with SYBR Gold (Molecular Probes) and visualized by UV light (302 nm).

[2] = test system: ss-deoxyoligonucleotide substrate; test: Cytidine deaminase activity of purified wild-type and mutant A3G; type: biochemical
Protocol: Deaminase activity of purified enzyme and virion-associated A3G protein was examined as previously described. Briefly, A3G deamination reactions were performed in a total volume of 10 μl in 25 mM Tris, pH 7.0, and 0.01-1 fmol single-stranded (ss) deoxyoligonucleotide substrate at 37° C. The reaction was terminated by heating to 95° C. for 5 min. One μl of the reaction mixture was used for PCR amplification performed in 20 μl buffer S, using the following program: 1 cycle at 95° C. for 3 min, followed by 30 cycles of annealing at 61° C. for 30 s and denaturing at 94° C. for 30 s. Aliquots of the PCR products (10 μl) were incubated with Eco147I restriction enzyme for 1 h at 37° C. Completion of the restriction reaction was verified by using positive-control substrate containing CCU instead of CCC. Restriction-reaction products were loaded onto 14% gels and separated by PAGE. Gels were stained with SYBR gold nucleic acid stain diluted 1:10,000 in 0.5× Tris-Borate-EDTA buffer (TBE, pH 7.8), visualized by UV light (312 nm), captured by an Olympus C-5050 charge-coupled device (CCD) camera and analyzed by optical density (OD) scan using the TINA2.0 densitometry software. Assessment of A3G entrapped in virions was carried out with concentrated viruses stocks of 3-5 μg of p24/μl) suspended in PBS containing Triton X-100 at final concentration of 0.1% (vv) and 50 μg/ml RNase A (Sigma-Aldrich). […]

[3] = test system: primer with 3′-terminal CC; test: Terminal cytidine deamination, DNA polymerase primer extension / PCR assay; type: biochemical; details: FIG. 4A
Protocol: A3G deaminates the extreme base of the ssDNA 3′-terminus and tethers two ssDNA termini To determine whether A3G interacts with the terminal base of the ssDNA, the inventors tested terminal cytidine deamination by A3G. A primer with 3′-terminal CC was incubated with A3G and was then used for extension and PCR amplification of a target sequence. It was previously shown that A3G W285 residue contributes to formation of a hydrophobic cavity and is essential for catalytic activity. […] A cleavage resistant polynucleotide deaminase substrate, comprising an internal cytidine, was incubated with either A3G or A3G W285A. Upon deamination, the internal uridine-containing polynucleotide was susceptible to restriction, and yielded a fragment which was apparent in the PAGE analysis of the cleaved deamination products shown in FIG. 3C (bottom).

[4] = test system: HRind cells (U2OS-DR-GFP); test: DR-GFP HR reporter assay of ISceI-induced DSB repair; type: cell-based; details: expression plasmid transfected, 52 hours after ISceI induction, FIG. 11B
Protocol: Repair of a unique ISceI-induced DSB by HR was assessed in U2OS-DR-GFP cells stably transfected with the Cherry-Sce-GR plasmid (HRind cells) as described in Shahar OD et al.. Cherry-ZScel-GR rapidly translocates from the cytoplasm into the nucleus on binding to triamcinolone acetonide (TA). The DR-GFP cassette enables reconstitution of GFP after ZScel-dependent HR between 2 mutated GFP sequences. Transfection of A3G or A3GW285A expression plasmids was performed in 24-well plates with GenJet (Signa-gen). Forty hours after transfection, IScel-directed DSB was induced with 10^7M TA (Sigma-Aldrich). GFP^+ cells were sorted 52 hours later by flow cytometry using FACScan as described in Shahar OD [10].

[5] = test system: DNA1 and DNA2 ss-oligonucleotides; test: Terminal ssDNA tethering by DNA polymerase terminal extension; type: biochemical; details: DNA1+2, FIG. 4D
Protocol: DNA1 and DNA2 were annealed to an equimolar amount of a short oligonucleotide (30 nt) complementary to the 5′-termius by heating to 95° C. followed by slow cooling to RT. DNA-polymerase extension reactions were performed in a total volume of 7 μl and included 100 fmol annealed oligonucleotides, 50 μM dNTPs (dCTP, dGTP, dTTP and dATP-biotin (Invitrogen)), NEBuffer 1 (final dilution ×0.35 (NEB)), 1 mg/ml BSA, 100 fmol A3G or A3G W285A, and 5 u Klenow Fragment (3′→5′ exo(−), NEB). Reactions were incubated for 30 min at 37° C. and terminated by heating to 95° C. for 5 min and adding 5 μl formamide. Samples were then heated to 80° C. prior to loading on pre-heated 10% acrylamide gel containing 6M urea. Gels were washed in Tris-Boric acid-EDTA buffer (ph 8.3) for 15 min and transferred to nylon membranes as described in the EMSA protocol below.
To further investigate A3G-mediated terminal ssDNA tethering, the inventors developed a DNA polymerase extension assay depicted in FIG. 4C. The 5′-termini of two ss-oligonucleotides (DNA1 and DNA2, 80 nt) were annealed to complementary oligonucleotides (30 nt), leaving 3′ ssDNA overhangs. […] As expected, no extension products were detected in the presence or absence of wild-type or mutant A3G (not shown). […]

SupT11 cells = test: γ-H2AX foci in SupT11 cells stably expressing A3G variants after IR; type: cell-based, human; details: 24 hours after IR (4 Gy), FIG. 9B
Protocol: Cells were irradiated by exposure to a ^60Co source producing 1 Gy sec^−1 γ-radiation, or mock-irradiated. Following incubation at 37° C., cells were fixed, attached to glass slides by cytospin, permeabilized with detergent and blocked with 10% normal goat serum. Cells were then incubated with A3G-specific rabbit polyclonal antibody, γ-H2AX-specific monoclonal antibody, or RPA32-specific monoclonal antibody, followed by incubation with goat anti-rabbit Cy-5-conjugated antibody, goat anti-mouse Cy-2-conjugated antibody and DAPI. Slides were mounted and examined by Zeiss LSM 710 confocal microscope. Data were collected sequentially using a ×63 objective with 7-fold averaging at a resolution of […], Z-sections were obtained using an optical slice of less than 1 μm. Data were analyzed with the Zen 2009.
To assess whether A3G cytidine deaminase activity is required for DSB repair, the inventors examined whether IR-Induced 7412AX focus formation occurred differentially in SupTH cells stably expressing A3G, an E259Q catalytic mutant (as denoted by SEQ ID NO. 90) or empty vector (EV).

B1: A3G W285A: A3G W285A catalytic mutant, deaminase-dead control that binds ssDNA (protein)
chain: MKPHFRNTVERMYRDTFSYNFYNRPILSRRNTVWLCYEVKTKGPSRPPLDAKIFRGQVYSELKYHPEMRFFHWFSKWRKLHRDQEYEVTWYISWSPCTKCTRDMATFLAEDPKVTLTIFVARLYYFWDPDYQEALRSLCQKRDGPRATMKIMNYDEFQHCWSKFVYSQRELFEPWNNLPKYYILLHIMLGEILRHSMDPPTFTFNFNNEPWVRGRHETYLCYEVERMHNDTWVLLNQRRGFLCNQAPHKHGFLEGRHAELCFLDVIPFWKLDLDQDYRVTCFTSASPCFSCAQEMAKFISKNKHVSLCIFTARIYDDQGRCQEGLRTLAEAGAKISIMTYSEFKHCWDTFVDHQGCPFQPWDGLDEHSQDLSGRLRAILQNQEN
modifications: A3G W285A mutant
ssDNA binding properties [1]: retained wild-type ssDNA binding properties
catalytic activity (cytidine deamination) ([2]; purified protein, FIG. 3C): catalytically inactive
PCR amplification after incubation of the primer [3]: normal PCR amplification
reduction of HR [4]: 6.2%

B2: A3G: wild-type human APOBEC3G, purified with C-terminal His6 tag from 293T cells or expressed in cells (protein, listed as Homo sapiens)
chain: MKPHFRNTVERMYRDTFSYNFYNRPILSRRNTVWLCYEVKTKGPSRPPLDAKIFRGQVYSELKYHPEMRFFHWFSKWRKLHRDQEYEVTWYISWSPCTKCTRDMATFLAEDPKVTLTIFVARLYYFWDPDYQEALRSLCQKRDGPRATMKIMNYDEFQHCWSKFVYSQRELFEPWNNLPKYYILLHIMLGEILRHSMDPPTFTFNFNNEPWVRGRHETYLCYEVERMHNDTWVLLNQRRGFLCNQAPHKHGFLEGRHAELCFLDVIPFWKLDLDQDYRVTCFTSWSPCFSCAQEMAKFISKNKHVSLCIFTARIYDDQGRCQEGLRTLAEAGAKISIMTYSEFKHCWDTFVDHQGCPFQPWDGLDEHSQDLSGRLRAILQNQEN
modifications: C-terminal His6 tag
notes: wild-type human APOBEC3G, purified with C-terminal His6 tag from 293T cells or expressed in cells
dC in the oligonucleotide substrate deaminated ([2]; purified recombinant A3G alone, FIG. 14A): 20%
inhibition of the PCR reaction after incubation of the primer [3]: ~90%
extension efficiency relative to Klenow fragment alone [5]: approximately 9 fold
reduction of HR [4]: 30.2%
average DSB load (γ-H2AX focus formation), lower than EV control cells (SupT11 cells): approximately 2 fold

B3: A3G E259Q: A3G E259Q catalytic mutant stably expressed in SupT11 cells (protein)
chain: MKPHFRNTVERMYRDTFSYNFYNRPILSRRNTVWLCYEVKTKGPSRPPLDAKIFRGQVYSELKYHPEMRFFHWFSKWRKLHRDQEYEVTWYISWSPCTKCTRDMATFLAEDPKVTLTIFVARLYYFWDPDYQEALRSLCQKRDGPRATMKIMNYDEFQHCWSKFVYSQRELFEPWNNLPKYYILLHIMLGEILRHSMDPPTFTFNFNNEPWVRGRHETYLCYEVERMHNDTWVLLNQRRGFLCNQAPHKHGFLEGRHAQLCFLDVIPFWKLDLDQDYRVTCFTSWSPCFSCAQEMAKFISKNKHVSLCIFTARIYDDQGRCQEGLRTLAEAGAKISIMTYSEFKHCWDTFVDHQGCPFQPWDGLDEHSQDLSGRLRAILQNQEN
modifications: A3G E259Q mutant
notes: A3G E259Q catalytic mutant stably expressed in SupT11 cells
enhancement of DSB repair (SupT11 cells): enhanced repair was not observed
